Measurements from patent publication US20110293511A1 (LUDWIG INSTITUTE FOR CANCER RESEARCH, published 2011).
Ends that are not written are not given here. * marks the point of attachment. Biotin = O=C1N[C@H]2[C@H](CS[C@H]2CCCCC(=O)*)N1

How the values were obtained:
[1] = target: T1, anti-idiotype antibody LMH-12; test: sandwich ELISA: capture on plate-bound LMH-12 (10 µg/ml), detection with biotinylated LMH-12 and avidin-HRP
T1 construct: mouse IgG1 kappa; also called clone 5B8; SB8

[2] = target: T2, Peptide C, C-terminal biotinylated de2-7 peptide (human, C-terminal biotin; the reagent list prints it on an added lysine, LEEKKGNYVVTDH(K-Biot)-OH); test: BIAcore, Peptide C on streptavidin chip
T2 peptide: LEEKKGNYVVTDH

[3] = target: T3, biotinylated de2-7 specific peptide (Biotin-LEEKKGNYVVTDH) (human); test: ELISA, biotinylated peptide on streptavidin plates
T3 construct: also called unique de2-7 EGFR peptide
T3 peptide: Biotin-LEEKKGNYVVTDH

[4] = target: T4, de2-7 EGFR unique junctional peptide (human); test: dot-blot immune stain
T4 construct: non-biotinylated; also called Junction Peptide
T4 peptide: LEEKKGNYVVTDH-OH

[5] = target: EGFR fragment 1-176, yeast-displayed (human, UniProt P00533 25-200); test: flow cytometry on yeast displaying the EGFR fragment, % positive cells
[6] = target: EGFR fragment 475-621, yeast-displayed (human, UniProt P00533 499-645); test: as above
[7] = target: T5, EGFR fragment 1-294, yeast-displayed (human, UniProt P00533 25-318); test: flow cytometry, indirect immunofluorescence on yeast displaying EGFR fragment 1-294
T5 construct: range 1-294

B1: chimeric antibody ch806 (antibody, human IgG1, V domains shown)
VH: DVQLQESGPSLVKPSQSLSLTCTVTGYSITSDFAWNWIRQFPGNKLEWMGYISYSGNTRYNPSLKSRISITRDTSKNQFFLQLNSVTIEDTATYYCVTAGRGFPYWGQGTLVTVSA
VL: DILMTQSPSSMSVSLGDTVSITCHSSQDINSNIGWLQQRPGKSFKGLIYHGTNLDDEVPSRFSGSGSGADYSLTISSLESEDFADYYCVQYAQFPWTFGGGTKLEIKR
notes: also called chAb806
In the case of B1, the “EC50 (read off the curve)” value [1] is reported as about 0.6 µg/mL.

B2: mAb806 (antibody, V domains shown)
VH: DVQLQESGPSLVKPSQSLSLTCTVTGYSITSDFAWNWIRQFPGNKLEWMGYISYSGNTRYNPSLKSRISITRDTSKNQFFLQLNSVTIEDTATYYCVTAGRGFPYWGQGTLVTVSA
VL: DILMTQSPSSMSVSLGDTVSITCHSSQDINSNIGWLQQRPGKSFKGLIYHGTNLDDEVPSRFSGSGSGADYSLTISSLESEDFADYYCVQYAQFPWTFGGGTKLEIKR
notes: murine IgG2b
B2: no binding (tested: 100 nM) [2]; no binding [3]; no binding [4]. For the same binder, the binding result [5] was “no binding (tested: 10 µg/ml (single concentration))”, the binding result [6] was “no binding (tested: 10 µg/ml (single concentration))” and the “EC50 (read off the curve)” value [1] was about 0.07 µg/mL. B2: no binding (tested: 10 µg/ml (single concentration)) [7].
